# According to IntAct's records for PubMed 22512862:
# B1: Phosphocarrier protein HPr (Bacillus subtilis), P08877 (parent)
# chain: MAQKTFKVTADSGIHARPATVLVQTASKYDADVNLEYNGKTVNLKSIMGVMSLGIAKGAEITISASGADENDALNALEETMKSEGLGE
# partner: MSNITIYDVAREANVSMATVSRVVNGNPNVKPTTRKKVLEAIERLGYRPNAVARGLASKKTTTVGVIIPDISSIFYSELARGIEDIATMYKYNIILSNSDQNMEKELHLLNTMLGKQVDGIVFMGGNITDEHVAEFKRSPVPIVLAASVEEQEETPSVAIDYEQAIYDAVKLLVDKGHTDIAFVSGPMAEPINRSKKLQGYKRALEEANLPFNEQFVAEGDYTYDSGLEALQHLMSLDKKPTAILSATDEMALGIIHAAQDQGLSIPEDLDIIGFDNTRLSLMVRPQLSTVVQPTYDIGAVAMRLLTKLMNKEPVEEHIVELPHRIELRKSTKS
# Variants of: B1
# Conditions: with ccpa_bacsu ccpA
row,Variant,effect of a mutation on the interaction
1,MAQKTFKVTADSGIHARPATVLVQTASKYDADVNLEYNGKTVNLKAIMGVMSLGIAKGAEITISASGADENDALNALEETMKSEGLGE [S46A],disrupting interaction
